Reference: patent publication US12091680B2, “Method for differentiation induction in cultured stem cells” (RIKEN, priority 2009, dated 2024)

Tested on: Rx-GFP ES cells
Test: SFEBq culture with purified laminin/entactin and Nodal/Activin, formation of RxGFP+ vesicles and cup structures (Example 6)
Format: cell-based, mouse
Conditions: for replacement of the retinal inducing activity of Nodal: 1000 ng/ml; for replacement of the retinal inducing activity of Nodal / appearance of Rx-GFP+ epithelia in SFEBq aggregates / morphology of Rx-GFP+ epithelia: combined with laminin+entactin; for appearance of Rx-GFP+ epithelia in SFEBq aggregates / morphology of Rx-GFP+ epithelia: treatment days 1-7; for appearance of Rx-GFP+ epithelia in SFEBq aggregates: Nodal 500 and 1000 ng/ml, Activin 250 ng/ml, read on day 7; for morphology of Rx-GFP+ epithelia: day 7 and day 10; for effect on neural (Sox1) and retinal (Rx) differentiation: treatment of SFEBq cells from day 0
Experimental: Rx-GFP ES cells (3000 cells/well, 96-well plate) were cultured in SFEBq culture with G-MEM supplemented with 1.5% KSR. In this experiment, instead of adding Matrigel to culture, purified laminin and entactin (High concentration Laminin/Entactin complex; BD; 120 μg/ml) were added as extracellular matrix proteins on day 1 (24 hours after the onset of differentiation culture). Recombinant Mouse Nodal (R&D; 500-1000 ng/mL) or Human Activin (R&D; 250 ng/ml) was also added on day 1 and the Nodal treatment was continued until day 7. SFEBq aggregates were cultured for 7-10 days and the formation of RxGFP+ vesicles and cup structures were examined under a fluorescent microscope. Nodal and Activin are known to act on common cell surface receptors and activate Smad2/3 signals in the cell.

TGF-beta1: growth factor tested at 1000 ng/ml in place of Nodal
replacement of the retinal inducing activity of Nodal: did not replace the inducing activity of Nodal

B1: TGF-beta2: growth factor tested at 1000 ng/ml in place of Nodal; printed as 'TGF-beta1 or 2' (protein, UniProt P61812 303-414, looked up)
Transforming growth factor …: ALDAAYCFRNVQDNCCLRPLYIDFKRDLGWKWIHEPKGYNANFCAGACPYLWSSDTQHSRVLSLYNTINPEASASPCCVSQDLEPLTILYYIGKTPKIEQLSNMIVKSCKCS
replacement of the retinal inducing activity of Nodal: did not replace the inducing activity of Nodal

B2: Nodal: Recombinant Mouse Nodal (R&D); acts on cell surface receptors common with Activin and activates Smad2/3 signals (protein, UniProt P43021 245-354, looked up)
Nodal: HHLPDRSQLCRRVKFQVDFNLIGWGSWIIYPKQYNAYRCEGECPNPVGEEFHPTNHAYIQSLLKRYQPHRVPSTCCAPVKTKPLSMLYVDNGRVLLEHHKDMIVEECGCL
appearance of Rx-GFP+ epithelia in SFEBq aggregates: large patches of Rx-GFP+ epithelia appeared | morphology of Rx-GFP+ epithelia: formed optic vesicle-like sacs on day 7 and later exhibited the optic cup-like morphology on day 10 | effect on neural (Sox1) and retinal (Rx) differentiation: inhibited both neural (Sox1) and retinal (Rx) differentiation

B3: Activin: Human Activin (R&D); acts on cell surface receptors common with Nodal and activates Smad2/3 signals (protein, UniProt P08476 311-426, looked up)
Inhibin beta A chain: GLECDGKVNICCKKQFFVSFKDIGWNDWIIAPSGYHANYCEGECPSHIAGTSGSSLSFHSTVINHYRMRGHSPFANLKSCCVPTKLRPMSMLYYDDGQNIIKKDIQNMIVEECGCS
appearance of Rx-GFP+ epithelia in SFEBq aggregates: large patches of Rx-GFP+ epithelia appeared | morphology of Rx-GFP+ epithelia: formed optic vesicle-like sacs on day 7 and later exhibited the optic cup-like morphology on day 10 | effect on neural (Sox1) and retinal (Rx) differentiation: inhibited both neural (Sox1) and retinal (Rx) differentiation
